The source of these data is patent publication US20040018198A1 (Amgen, published 2004).

Substitutions are numbered along the chain they refer to.

First the molecules themselves.
B1: AB-MN-22.18 (antibody, human IgG2, V domains shown)
VH: QVQLQESGPGLVKPSQTLSLTCTVSGGSISSGGYYWNWIRQHPGKGLEWIGYIYYSGSTYYNPSLKSRVTISVDTSKNQFSLKLSSVTAADTAVYYCARTYYDILTGYPDAFDIWGQGTMVTVSS
VL: DIQMTQSPSSLSASVGDRVTITCRASQDIRNDLGWYQQKPGKAPKRLICAASSLQSGVPSSFSGSGSGTEFTLTISSLQPEDFATYYCLQHNSYPWTFGQGTKVEIK
notes: also called AX014H22-18
B2: AB-MN-22.25 (antibody, human IgG2, V domains shown)
VH: QLQLQESGPGLVKPSETLSLTCTVSDGSISSSSYYWGWIRQPPGKGLEWIGSIYYSGSTYYNPSLKSRVTISVDTSKNQFSLKLSSVTAADTAVYYCARHGSFFDYWGQGTLVTVSS
VL: B1 VL with D28G, C49Y, S61R, A84T, H91Y, N92K
notes: also called AX014H22-25
B3: AB-MN-22.30 (antibody, human IgG2, V domains shown)
VH: QVQLVESGGGVVQPGRSLRLSCAASGFTFSSYAMHWVRQAPGKGLEWVAVIWYDGSTKYYADSVKGRFTISRDNSKNTLYLQMNSLRAEDTAVYYCARDRGLLWFGELSPHYGMDVWGQGTTVTVSS
VL: B1 VL with D28G, C49Y, S61R, E70D, N92Y, W96L, Q100G
notes: also called AX014H22-30
B4: AB-MN-22.28.1 (antibody, human IgG2, V domains shown)
VH: QVQLEQSGGGLVQPGGSLRLSCAASGFTFSSYAMSWVRQAPGKGLEWVSAISGSGGGTYYADSVKGRFTISRDNSKNTLYLQMNSLRAEDTAVYYCASGRYYYYYDMDVWGQGTTVTVSS
VL: B1 VL with Q3R, M4L, D28G, C49Y, S61R, W96L, Q100G
notes: the numbering there is inconsistent; also called AX014H22-28-1
B5: AB-MN-22.19 (antibody, human IgG2, V domains shown)
VH: QVQLQESGPGLVKPSETLSLTCTVSGGSISFYYWNWIRQPAGKGLEWVGRIYTSGSTNYNPSLKSRVTMSVDTSKNQFSLKLSSVTAADTAVYYCARGGFLEWDYYYGMDVWGQGTTVTVSS
VL: EIVLTQSPGTLSLSPGERATLSCRASQSVSVTYLAWYQQKPGQAPRLLIYGASSRATGIPDRFSGSGSGTDFTLTISRLEPEDFAVYYCQQYGSSVTFGGGTKVEIK
notes: also called AX014H22-19
B6: AB-MN-22.17 (antibody, human IgG2, V domains shown)
VH: QVQLQESGPGLVKPSETLSLTCTVSGGSISSYYWSWIRQPPGKGLEWIGYIYYSGSTNYNPSLKSRVTISVDTSKNQFSLKLSSVTAADTAVYYCARRGYDILTGYDYFDYWGQGTLVTVSS
VL: DIQMTQSPSSVSASVGDRVTITCRASQGISIWLTWYQQKPGKAPKLLIYAASSLQSGVPSRFSGSGSGTDFTLTISSLQPEDFATYYCQQANSFPITFGQGTRLEIK
notes: also called AX014H22-17
B7: AB-MN-22.29 (antibody, human IgG2, V domains shown)
VH: QVQLQESGPGLVKPSETLSLTCTVSGGSISSYYWSWIRQPAGKGLEWIGRIYTSGSTNYNPSLKSRVTMSVDTSKNQFSLKLSSVTAADTAVYYCARDGQWLEDYGMDVWGQGTTVTVSS
VL: B6 VL with I31S, T34A, Y36F
notes: also called AX014H22-29

The first assay has as its target CA-IX-His-ECD (his-V5 tagged version of the CA IX protein, extracellular domain) (human, UniProt Q16790 38-414). The experiment in a line: ELISA on CA-IX-His-ECD.
In turn, B1 showed an OD of 2.23 OD.

In turn, B2 gave an OD of 1.84 OD.

B3 had an OD of 2.2 OD.

Molecule B4 had an OD of 0.404 OD.

Molecule B5 returned an OD of 2.12 OD.

Take B6: the OD came to 2.16 OD.

Turning to B7, the OD stood at 1.96 OD.

The target of another assay is CA IX catalytic domain protein (CA9-CD) (human, UniProt Q16790 138-391). The experiment in a line: ELISA on CA9-CD (catalytic domain).
B1 had an OD of 2.75 OD.

On to B2, for which the OD was found to be 2.48 OD.

Regarding B3, the OD worked out at 2.46 OD.

In turn, B4 showed an OD of 2.54 OD.

Regarding B5, the OD was determined as 3.01 OD.

B6 returned an OD of 2.57 OD.

B7 came in with an OD of 2.52 OD.
